This note sets out measurements from patent US11767351B2, “Recombinant lectin and uses thereof” (CITY OF HOPE, priority 2017, dated 2023).

Entries after “also recorded” stand apart in the source; their conditions may differ.

Data set [1] in a line: Glycan microarray (RayBio Glycan Array 100). As to conditions: biotin-labeled SHAs 20 μg/ml (1×) and 2 μg/ml (0.1×), absence of L-rhamnose. It counts as binding.
Data set [2] can be described thus: Glycan microarray (RayBio Glycan Array 100). It counts as binding. As to conditions: biotin-labeled SHAs 20 μg/ml (1×) and 2 μg/ml (0.1×), absence of L-rhamnose. The source holds these as a separate data set.
A short description of data set [3]: Glycan microarray (RayBio Glycan Array 100). It counts as binding. To be noted: biotin-labeled SHAs 20 μg/ml (1×) and 2 μg/ml (0.1×), absence of L-rhamnose. The source holds these as a separate data set.
Data set [4] is described as follows: Glycan microarray (RayBio Glycan Array 100). In kind it is binding. To be noted: biotin-labeled SHAs 20 μg/ml (1×) and 2 μg/ml (0.1×), absence of L-rhamnose. This is another data set of the same source.
A short description of data set [5]: Glycan microarray (RayBio Glycan Array 100). In kind it is binding. To be noted: biotin-labeled SHAs 20 μg/ml (1×) and 2 μg/ml (0.1×), absence of L-rhamnose. This is another data set of the same source.
Data set [6] can be described thus: Glycan microarray (RayBio Glycan Array 100). It counts as binding. As to conditions: biotin-labeled SHAs 20 μg/ml (1×) and 2 μg/ml (0.1×), absence of L-rhamnose. The source holds these as a separate data set.
Data set [7] is described as follows: Glycan microarray (RayBio Glycan Array 100). As to conditions: glycans listed in Table 4. It counts as binding. On the procedure:
Glycan microarray analyses—Microarray analysis was performed according to the manufacturer recommendations using RayBio Glycan Array 100 (RayBiotech, Norcross Ga.) slides. Each slide contains four sub-microarrays printed with 100 synthetic glycans. Briefly, 200 μL of 0.1 mg/mL of both archived SHA and rSHA were dialyzed overnight at 4° C. against 1×PBS dialysis buffer to avoid contaminating samples with amines prior to biotinylation. Dialyzed samples were incubated with biotin-containing reaction solution at 22° C. for 30 min. Sub-arrays were blocked for 30 min at 22° C. After biotinylated SHA samples were diluted with 1×PBS, 400 μL of each sample was added to each sub-array. Slide #1 sub-arrays were incubated with 400 μL of 20 μg/mL (1×) or 2 μg/mL (0.1×) SHA, in the absence or presence of 0.2 M L-Rhamnose. Slide #2 sub-arrays were incubated with 400 μL of 20 μg/mL (1×) or 2 μg/mL of rSHA (0.1×), in the absence or presence of 0.2 M L-rhamnose. Slides were incubated for 16 h at 4° C. for highest intensities. […]
(§1) Therefore, a novel construct that encoded an E. coli codon-optimized, His-tagged, Trx-SMT3 (SUMO family protein)-SHA(A108E) fusion protein was expressed. […] The glycan binding was measured using two distinct concentrations of biotin-labeled SHAs (1×: 20 μg/ml and 0.1×: 2 μg/ml) in the absence and presence of 0.2 M L-rhamnose as a competitive inhibitor.

Data set [8] is described as follows: Glycan microarray (RayBio Glycan Array 100). In kind it is binding. To be noted: biotin-labeled SHAs 20 μg/ml (1×) and 2 μg/ml (0.1×), absence of L-rhamnose. The source holds these as a separate data set.
The nature of data set [9]: Glycan microarray (RayBio Glycan Array 100). To be noted: biotin-labeled SHAs 20 μg/ml (1×) and 2 μg/ml (0.1×), absence of L-rhamnose. It counts as binding. The source holds these as a separate data set.
Data set [10] is described as follows: Glycan microarray (RayBio Glycan Array 100). It counts as binding. To be noted: biotin-labeled SHAs 20 μg/ml (1×) and 2 μg/ml (0.1×), absence of L-rhamnose. The source holds these as a separate data set.
Data set [11] can be described thus: Glycan microarray (RayBio Glycan Array 100). In kind it is binding. As to conditions: biotin-labeled SHAs 20 μg/ml (1×) and 2 μg/ml (0.1×), absence of L-rhamnose. The source holds these as a separate data set.
Data set [12] is described as follows: Glycan microarray (RayBio Glycan Array 100), whole array profile and L-rhamnose competition. It counts as binding. To be noted: for carbohydrate-binding specificity compared with archived SHA: side by side on Glycan Array 100. On the procedure: Glycan microarray analyses—Microarray analysis was performed according to the manufacturer recommendations using RayBio Glycan Array 100 (RayBiotech, Norcross Ga.) slides. Each slide contains four sub-microarrays printed with 100 synthetic glycans. Briefly, 200 μL of 0.1 mg/mL of both archived SHA and rSHA were dialyzed overnight at 4° C. against 1×PBS dialysis buffer to avoid contaminating samples with amines prior to biotinylation. Dialyzed samples were incubated with biotin-containing reaction solution at 22° C. for 30 min. Sub-arrays were blocked for 30 min at 22° C. After biotinylated SHA samples were diluted with 1×PBS, 400 μL of each sample was added to each sub-array. Slide #1 sub-arrays were incubated with 400 μL of 20 μg/mL (1×) or 2 μg/mL (0.1×) SHA, in the absence or presence of 0.2 M L-Rhamnose. Slide #2 sub-arrays were incubated with 400 μL of 20 μg/mL (1×) or 2 μg/mL of rSHA (0.1×), in the absence or presence of 0.2 M L-rhamnose. Slides were incubated for 16 h at 4° C. for highest intensities. Washing was performed according to the manufacturer's protocol, followed by incubation with Cy3 dye-conjugated streptavidin. The slides were incubated at 22° C. for 1 h with gentle shaking, then washed multiple times as recommended. The signals were visualized using an Agilent DNA microarray scanner (Model G2505C; Agilent, Santa Clara, Calif.) at 532 nm for Cy3. Data extraction and analysis was performed after subtraction of the background and normalization to the internal references provided by the manufacturer, using an ImageJ Protein Array Analyzer software (28).
as §1

A short description of data set [13]: Solubility of recombinant SHA proteins. It counts as physicochemical. As to conditions: expressed in E. coli. On the procedure: Due to solubility issues various fusion proteins of the recombinant SHA were prepared and expressed in E. coli. Of those, a yeast SUMO(SMT3)-fusion protein was successfully purified for comparing carbohydrate-binding specificity with that of archived SHA. Briefly, SMT3-fused SHA(A108E) was prepared by insertion at the SMT3 and Ulp1 cleavage sites of pET32b/SHA(A108E). E. Cloni® (Lucigen) was transformed by pET32b/SMT3-SHA(A108E). […] SHA(A108E) was cleaved off from SMT3 bound to the column by incubating with UPL1. The resulting SHA(A108E) was purified by gum arabic gels. The authenticity of SHA(A108E) was confirmed by SDS-PAGE and glycan microarray analyses.
as §1, with “expressed. This protein was refolded on the nickel NTA column in the presence of D-galactose, and soluble recombinant SHA (rSHA) was cleaved off from the Trx-SMT3 portion using His-tagged Ulp1 (8). The purified rSHA is shown in FIG. 6C, together with archived SHA.” for “expressed.”

Data set [14] is described as follows: Glycan microarray (RayBio Glycan Array 100). In kind it is binding. To be noted: biotin-labeled SHAs 20 μg/ml (1×) and 2 μg/ml (0.1×), absence of L-rhamnose. The source holds these as a separate data set.

B1: rSHA: recombinant SHA(A108E) expressed in E. coli, cleaved from Trx-SMT3 fusion; SEQ ID NO: 25 (protein)
chain: ARTVCYAAHVEGIGWQGAVCDGAVAGTTGQSRRMEAAVIATSGTGGVCANAHLADIGWQGWACAADGKAVTVGTTGQSRRMEALGLQVGNGSVAAQAHVADYGWLNAEGGNPVYVGTTGQSRRMEAVRIWV
modifications: recombinant SHA
Take B1: the “binding signal to Blood B antigen tetrasaccharide” value in data set [1] is “Strong signals”. The “binding signal to Blood B antigen trisaccharide” value in data set [2] is “Strong signals”. For the same molecule, the “binding signal to Gal-α-1,3-Gal-β-1,3-GlcNAc-β-” value in data set [3] is listed as “Strong signals”. Further, in data set [4], the “binding signal to Gal-α-1,4-Gal-β-1,3-GlcNAc-β-” value is on record as “Strong signals”. Also, the “binding to Gal-α-1,4-Gal-β-1,4-Glc-β-” value in data set [5] is recorded as “weaker, but still significant, binding”. In addition, the “binding to Gal-α-1,4-Gal-β-1,4-GlcNAc-β-” value in data set [6] was “weaker, but still significant, binding”. In addition, the “binding to the remaining 89 chip-immobilized glycans” value in [7] is listed as “did not bind”. Besides, the “binding signal to α-Rha-” value in data set [8] was “Strong signals”. Also, in data set [9], the “binding signal to Gal-α-1,3-Gal-β-” value is “Strong signals”. In [10], the “binding signal to Gal-α-1,3-Gal-β-1,4-Glc-β-” value is “Strong signals”. Besides, the “binding to GaINAc-β-1,3-Gal-β-1,4-Glc-β-” value in data set [11] is “weaker, but still significant, binding”. Moreover, the “binding to all glycans, except α-Rha, in the presence of L-rhamnose” value in [12] (0.2 M L-rhamnose as competitive inhibitor) is recorded as “competitively inhibited”. Also, the “carbohydrate-binding specificity compared with archived SHA” value in [12] was “identical carbohydrate-binding specificities; also recorded: same glycan specificity profile”; in data set [12] (listed as SHA(A108E)), “same carbohydrate-binding specificity”. The solubility result in data set [13] is listed as “soluble”. The “binding signal to β-Gal-” value in data set [14] is given as “Strong signals”.
